Assay results from the supplement of paper PMC11246515.
± gives the standard deviation of the averaged measurements.

Experiment: total protein half-life in vivo (active degradation + dilution); higher = more stable protein
[1] = E. coli NCM3722 delta-clpP delta-lon delta-hslV, growth: N-lim chemostat, doubling time 6 h
[2] = E. coli NCM3722 delta-lon, growth: N-lim chemostat, doubling time 6 h
[3] = E. coli NCM3722 delta-smpB, growth: N-lim chemostat, doubling time 6 h
[4] = wild type E. coli NCM3722, growth: C-lim chemostat, doubling time 3 h
[5] = wild type E. coli NCM3722, growth: C-lim chemostat, doubling time 6 h
[6] = wild type E. coli NCM3722, growth: C-lim chemostat, doubling time 12 h
[7] = wild type E. coli NCM3722, growth: N-lim chemostat, doubling time 6 h
[8] = wild type E. coli NCM3722, growth: N-lim chemostat, doubling time 12 h
[9] = wild type E. coli NCM3722, growth: P-lim chemostat, doubling time 6 h
[10] = E. coli NCM3722 delta-clpP, growth: N-lim chemostat, doubling time 6 h
[11] = E. coli NCM3722 delta-hslV, growth: N-lim chemostat, doubling time 6 h
[12] = wild type E. coli NCM3722, growth: P-lim chemostat, doubling time 12 h

In the case of “MKRTMLYLSLLAVSCSVSAAKYPVLTESSPEKAGFNVERLNQMDRWISQQVDVGYPSVNLLIIKDNQIVYRKAWGAAKKYDGSVLMEQPVKATTGTLYDLASNTKMYATNFALQKLMSEGKLHPDDRIAKYIPGFADSPNDTIKGKNTLRISDLLHHSGGFPADPQYPNKAVAGALYSQDKGQTLEMIKRTPLEYQPGSKHIYSDVDYMLLGFIVESVTGQPLDRYVEESIYRPLGLTHTVFNPLLKGFKPQQIAATELNGNTRDGVIHFPNIRTSTLWGQVHDEKAFYSMGGVSGHAGLFSNTGDIAVLMQTMLNGGGYGDVQLFNAETVKMFTTSSKEDATFGLGWRVNGNATMTPTFGTLASPQTYGHTGWTGTVTVIDPVNHMTIVMLSNKPHSPVADPQKNPNMFESGQLPIATYGWVVDQVYAALKQK”, the “total protein half-life in vivo” value [1] is reported as 6.01 ± 1.4 h, the “total protein half-life in vivo” value [2] is reported as 5.56 ± 0.55 h and the “total protein half-life in vivo” value [3] is reported as 5.13 ± 0.61 h. The “total protein half-life in vivo” value [4] was 3.15 ± 0.17 h, the “total protein half-life in vivo” value [5] was 6.3 ± 0.47 h and the “total protein half-life in vivo” value [6] was 10.4 ± 1.3 h. The “total protein half-life in vivo” value [7] was 5.42 ± 0.84 h, the “total protein half-life in vivo” value [8] was 11.2 ± 0.13 h and the “total protein half-life in vivo” value [9] was 5.84 ± 0.99 h.
In the case of “MGKLTLLLLAILVWLQYSLWFGKNGIHDYTRVNDDVAAQQATNAKLKARNDQLFAEIDDLNGGQEALEERARNELSMTRPGETFYRLVPDASKRAQSAGQNNR [P0A6S5]”, the “total protein half-life in vivo” value [1] is reported as 5.44 h, the “total protein half-life in vivo” value [10] is reported as 3.17 h and the “total protein half-life in vivo” value [11] is reported as 4.05 h. The “total protein half-life in vivo” value [2] was 4.37 h, the “total protein half-life in vivo” value [4] was 2.7 h and the “total protein half-life in vivo” value [5] was 4.69 ± 0.55 h. The “total protein half-life in vivo” value [7] was 3.47 h, the “total protein half-life in vivo” value [8] was 6.03 h and the “total protein half-life in vivo” value [12] was > 16 h.
In the case of “MNMKLKTLFAAAFAVVGFCSTASAVTYPLPTDGSRLVGQNQVITIPEGNTQPLEYFAAEYQMGLSNMMEANPGVDTFLPKGGTVLNIPQQLILPDTVHEGIVINSAEMRLYYYPKGTNTVIVLPIGIGQLGKDTPINWTTKVERKKAGPTWTPTAKMHAEYRAAGEPLPAVVPAGPDNPMGLYALYIGRLYAIHGTNANFGIGLRVSHGCVRLRNEDIKFLFEKVPVGTRVQFIDEPVKATTEPDGSRYIEVHNPLSTTEAQFEGQEIVPITLTKSVQTVTGQPDVDQVVLDEAIKNRSGMPVRLN [P0AAX8]”, the “total protein half-life in vivo” value [1] is reported as 6.81 ± 1.6 h, the “total protein half-life in vivo” value [10] is reported as 5.74 ± 0.27 h and the “total protein half-life in vivo” value [11] is reported as 6.22 ± 0.09 h. For the same sequence, the “total protein half-life in vivo” value [2] was 6.15 ± 0.32 h, the “total protein half-life in vivo” value [3] was 6.37 ± 0.75 h and the “total protein half-life in vivo” value [4] was 2.9 ± 0.083 h. The “total protein half-life in vivo” value [5] was 5.76 ± 0.11 h, the “total protein half-life in vivo” value [6] was 11.6 ± 0.4 h and the “total protein half-life in vivo” value [7] was 5.98 ± 0.64 h. The “total protein half-life in vivo” value [8] was 13.7 ± 1.3 h, the “total protein half-life in vivo” value [9] was 5.606 ± 0.037 h and the “total protein half-life in vivo” value [12] was 12.3 ± 0.94 h.
With “MATGTQPDAGQILNSLINSILLIDDNLAIHYANPAAQQLLAQSSRKLFGTPLPELLSYFSLNIELMQESLEAGQGFTDNEVTLVIDGRSHILSVTAQRMPDGMILLEMAPMDNQRRLSQEQLQHAQQVAARDLVRGLAHEIKNPLGGLRGAAQLLSKALPDPSLLEYTKVIIEQADRLRNLVDRLLGPQLPGTRVTESIHKVAERVVTLVSMELPDNVRLIRDYDPSLPELAHDPDQIEQVLLNIVRNALQALGPEGGEIILRTRTAFQLTLHGERYRLAARIDVEDNGPGIPPHLQDTLFYPMVSGREGGTGLGLSIARNLIDQHSGKIEFTSWPGHTEFSVYLPIRK [P0AFB5]” the “total protein half-life in vivo” value [1] was 5.25 ± 0.15 h, the “total protein half-life in vivo” value [10] was 5.41 ± 0.72 h and the “total protein half-life in vivo” value [11] was 5.19 ± 0.57 h. For the same sequence, the “total protein half-life in vivo” value [2] was 4.938 ± 0.023 h, the “total protein half-life in vivo” value [3] was 4.73 ± 0.11 h and the “total protein half-life in vivo” value [4] was 3.11 ± 0.38 h. For the same sequence, the “total protein half-life in vivo” value [5] was 5.27 ± 0.073 h, the “total protein half-life in vivo” value [6] was 9.99 ± 1.6 h and the “total protein half-life in vivo” value [7] was 4.48 ± 0.38 h. The “total protein half-life in vivo” value [8] was 8.26 ± 1 h, the “total protein half-life in vivo” value [9] was 7.12 ± 0.5 h and the “total protein half-life in vivo” value [12] was 11.2 ± 2.2 h.
For “MSWLKEVIGTEKAVIAMCHLRALPGDPSFDAQLGMNWVIDKAWDDLMALQNGGVDAVMFSNEFSLPYLTKVRPETTAAMARIIGQLMSDIRIPFGVNVLWDPVASFDLAMATGAKFIREIFTGAYASDFGVWDTNVGETIRHQHRIGAGEVKTLFNIVPEAAVYLGNRDICSIAKSTVFNNHPDALCVSGLTAGTRTDSALLKRVKETVPDTVVLANTGVCLENVEEQLSIADGCVTATTFKKDGVFANFVDQARVSQFMEKVHHIRR”, the “total protein half-life in vivo” value [1] was 4.34 ± 0.67 h, the “total protein half-life in vivo” value [4] was 1.07 ± 0.83 h and the “total protein half-life in vivo” value [5] was 5.65 ± 0.48 h. For the same sequence, the “total protein half-life in vivo” value [6] was 8.62 ± 0.11 h and the “total protein half-life in vivo” value [12] was 3.45 h.
For “MLNKLSLLLKDAGISLTDHQKNQLIAYVNMLHKWNKAYNLTSVRDPNEMLVRHILDSIVVAPYLQGERFIDVGTGPGLPGIPLSIVRPEAHFTLLDSLGKRVRFLRQVQHELKLENIEPVQSRVEEFPSEPPFDGVISRAFASLNDMVSWCHHLPGEQGRFYALKGQMPEDEIALLPEEYQVESVVKLQVPALDGERHLVVIKANKI [P0A6U5]”, the “total protein half-life in vivo” value [1] was 5.85 ± 1.7 h, the “total protein half-life in vivo” value [10] was 4.636 ± 0.041 h and the “total protein half-life in vivo” value [2] was 5.33 ± 0.68 h. For the same sequence, the “total protein half-life in vivo” value [3] was 4.48 ± 0.18 h, the “total protein half-life in vivo” value [4] was 3.51 ± 0.68 h and the “total protein half-life in vivo” value [6] was 10.5 ± 1.6 h. For the same sequence, the “total protein half-life in vivo” value [7] was 5.09 ± 0.33 h, the “total protein half-life in vivo” value [8] was 8.45 ± 0.31 h and the “total protein half-life in vivo” value [9] was 5.87 ± 0.69 h. For the same sequence, the “total protein half-life in vivo” value [12] was 13.1 ± 2 h.
For “MLKIIRAGMYTTVQDGGRHGFRQSGISHCGALDMPALRIANLLVGNDANAPALEITLGQLTVEFETDGWFALTGAGCEARLDDNAVWTGWRLPMKAGQRLTLKRPQHGMRSYLAVAGGIDVPPVMGSCSTDLKVGIGGLEGRLLKDGDRLPIGKSKRDSMEAQGVKQLLWGNRIRALPGPEYHEFDRASQDAFWRSPWQLSSQSNRMGYRLQGQILKRTTDRELLSHGLLPGVVQVPHNGQPIVLMNDAQTTGGYPRIACIIEADMYHLAQIPLGQPIHFVQCSLEEALKARQDQQRYFEQLAWRLHNEN”, the “total protein half-life in vivo” value [1] was 5.37 ± 0.055 h, the “total protein half-life in vivo” value [10] was 5.3 ± 0.29 h and the “total protein half-life in vivo” value [11] was 5.076 ± 0.012 h. For the same sequence, the “total protein half-life in vivo” value [2] was 5.07 ± 0.35 h, the “total protein half-life in vivo” value [3] was 4.88 ± 0.36 h and the “total protein half-life in vivo” value [4] was 3.12 ± 0.1 h. For the same sequence, the “total protein half-life in vivo” value [5] was 5.73 ± 0.14 h, the “total protein half-life in vivo” value [6] was 10.1 ± 0.82 h and the “total protein half-life in vivo” value [7] was 5.25 ± 0.34 h. For the same sequence, the “total protein half-life in vivo” value [8] was 8.94 ± 0.26 h, the “total protein half-life in vivo” value [9] was 5.79 ± 0.12 h and the “total protein half-life in vivo” value [12] was 11.26 ± 0.079 h.
